The target in assay [1] is EIIIB domain of fibronectin. Description: BLI (biolayer interferometry); format not described.
Assay [2] deals with purified human tenascin C protein (human) (UniProt P24821). The description is as above.
Assay [3] has the same target. Description: ELISA, plates coated with 3 ug/ml purified human TNC, increasing VHH concentration.

Chain of purified human tenascin C protein (human) (P24821 23-2201): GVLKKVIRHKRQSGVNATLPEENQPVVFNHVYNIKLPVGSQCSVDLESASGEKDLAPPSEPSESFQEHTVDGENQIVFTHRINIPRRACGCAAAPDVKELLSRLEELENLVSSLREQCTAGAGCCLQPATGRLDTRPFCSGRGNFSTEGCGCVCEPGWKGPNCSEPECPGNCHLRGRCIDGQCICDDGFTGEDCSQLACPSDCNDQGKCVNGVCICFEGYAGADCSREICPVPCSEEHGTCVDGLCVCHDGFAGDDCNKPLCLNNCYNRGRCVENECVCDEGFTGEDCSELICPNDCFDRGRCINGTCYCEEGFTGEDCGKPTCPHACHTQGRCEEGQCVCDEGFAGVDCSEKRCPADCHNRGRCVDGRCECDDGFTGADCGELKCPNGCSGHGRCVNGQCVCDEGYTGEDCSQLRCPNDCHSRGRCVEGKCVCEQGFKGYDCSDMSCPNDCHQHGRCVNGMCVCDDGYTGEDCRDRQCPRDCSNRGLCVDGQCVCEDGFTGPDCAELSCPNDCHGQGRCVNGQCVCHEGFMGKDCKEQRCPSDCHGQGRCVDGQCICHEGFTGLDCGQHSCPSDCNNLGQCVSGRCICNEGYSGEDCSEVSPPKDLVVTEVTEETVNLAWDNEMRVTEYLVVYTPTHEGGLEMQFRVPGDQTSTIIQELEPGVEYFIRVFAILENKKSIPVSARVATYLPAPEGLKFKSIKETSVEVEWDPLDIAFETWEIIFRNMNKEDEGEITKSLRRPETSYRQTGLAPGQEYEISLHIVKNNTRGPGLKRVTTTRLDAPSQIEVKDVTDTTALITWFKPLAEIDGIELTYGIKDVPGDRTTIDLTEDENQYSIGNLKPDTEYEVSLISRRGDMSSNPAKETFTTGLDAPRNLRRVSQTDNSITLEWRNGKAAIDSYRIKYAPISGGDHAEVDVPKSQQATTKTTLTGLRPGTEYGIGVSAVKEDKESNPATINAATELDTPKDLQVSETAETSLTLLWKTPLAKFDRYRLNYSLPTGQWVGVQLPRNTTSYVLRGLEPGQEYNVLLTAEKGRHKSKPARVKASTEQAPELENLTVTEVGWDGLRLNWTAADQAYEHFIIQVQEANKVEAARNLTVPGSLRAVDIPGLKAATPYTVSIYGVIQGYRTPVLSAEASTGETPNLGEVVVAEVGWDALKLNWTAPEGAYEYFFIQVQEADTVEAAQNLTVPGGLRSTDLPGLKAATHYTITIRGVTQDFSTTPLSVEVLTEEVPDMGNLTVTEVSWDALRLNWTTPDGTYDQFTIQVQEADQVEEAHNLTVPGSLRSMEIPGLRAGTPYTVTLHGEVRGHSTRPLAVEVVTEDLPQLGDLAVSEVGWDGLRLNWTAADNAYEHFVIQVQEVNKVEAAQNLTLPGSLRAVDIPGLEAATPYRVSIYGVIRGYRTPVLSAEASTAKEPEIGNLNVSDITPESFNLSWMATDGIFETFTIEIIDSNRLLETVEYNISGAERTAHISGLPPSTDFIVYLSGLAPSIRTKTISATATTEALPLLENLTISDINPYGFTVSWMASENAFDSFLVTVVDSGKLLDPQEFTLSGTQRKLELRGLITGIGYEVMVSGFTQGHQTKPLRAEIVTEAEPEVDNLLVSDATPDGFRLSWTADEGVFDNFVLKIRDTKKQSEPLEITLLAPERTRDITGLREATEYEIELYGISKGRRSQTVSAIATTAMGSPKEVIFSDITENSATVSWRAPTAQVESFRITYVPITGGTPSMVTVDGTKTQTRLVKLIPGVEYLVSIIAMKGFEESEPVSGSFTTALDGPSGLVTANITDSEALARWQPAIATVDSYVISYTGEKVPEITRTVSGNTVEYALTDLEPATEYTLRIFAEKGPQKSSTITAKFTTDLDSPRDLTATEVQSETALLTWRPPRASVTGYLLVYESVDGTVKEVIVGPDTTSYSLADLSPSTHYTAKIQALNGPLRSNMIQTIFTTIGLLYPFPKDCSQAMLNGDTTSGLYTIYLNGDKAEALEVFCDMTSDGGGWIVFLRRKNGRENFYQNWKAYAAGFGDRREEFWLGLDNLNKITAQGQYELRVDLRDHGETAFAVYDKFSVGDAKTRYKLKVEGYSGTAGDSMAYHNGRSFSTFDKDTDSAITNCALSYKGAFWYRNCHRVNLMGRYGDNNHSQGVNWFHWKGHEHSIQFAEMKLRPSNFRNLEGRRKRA
Chain of EIIIB domain of fibronectin (P02751 1271-1359): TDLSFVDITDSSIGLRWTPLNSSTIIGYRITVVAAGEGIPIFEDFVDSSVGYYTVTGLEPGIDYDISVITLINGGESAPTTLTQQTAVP

B1: NJB2 nanobody (VHH) (VHH)
VHH: QVQLVETGGGLVQAGGSLRLSCAASGSTFSHNAGGWYRQAPEKQRELVAGISSDGNINYADSVKDRFTISRDNASNTMYLQMNNLKPEDTAVYVCNIRGSYGNTYYSRWGQGTQVTVSS
For the molecule B1, the Kd in assay [1] worked out at 4000 pM.

B2: NJT6 nanobody (VHH) (VHH)
VHH: QVQLVETGGDLVQPGGSLRLSCAASGLTLDYYAIGWVRQAPGKEREGVSCITPQDGNTYYDDSVMGRFTILRDNAKNMVYLQMNNLKPEDTAVYFCAAAGALTLDPSEYEYWGQGTQVTVSS
For B2, the Kd in assay [2] was below 1 pM. Besides, the EC50 (read off the curve) in assay [3] was found to be 0.01 ng/mL.

B3: NJT3 nanobody (VHH) (VHH)
VHH: QVQLVETGGGLAQAGGSLRLSCAASGRTLSGYAMGWFRQAPGKEREFVAAISWSGRNTYYDYTVQGRFTISKDNAKNTVNLQMNSLKPEDTAVYYCAVSRSLDEFGDGYEMDYWGDGTQVTVSS
Take B3: the Kd in assay [2] is below 1 pM. The molecule further came in with a concentration giving a half-maximal response (EC50 (read off the curve)) in assay [3] of 0.02 ng/mL.

B4: NJT4 nanobody (VHH) (VHH)
VHH: QVQLVESGGGLVQPGGSLRLSCAASGFTFSSYTMRWYRQAPGKERELVAFIGVAGGSTKYADSVKGRFTISRDNTKNTVYLQMNTLKPEDTAVYYCYAPLTPYWGQGTQVTVSS
The molecule B4 returned a Kd in assay [2] below 1 pM.

The values are drawn from US20260028406A1.
